B1: library; numbered along this chain (parent)
chain: MRKPRAAVGSGHRKQAASQEGRQKHAKNNSQAKPSACDGLARQPEEVVLQASVSSYHLFRDVAEVTAFRGSLLSWYDQEKRDLPWRRRAEDEMDLDRRAYAVWVSEVMLQQTQVATVINYYTGWMQKWPTLQDLASASLEEVNQLWAGLGYYSRGRRLQEGARKVVEELGGHMPRTAETLQQLLPGVGRYTAGAIASIAFGQATGVVDGNVARVLCRVRAIGADPSSTLVSQQLWGLAQQLVDPARPGDFNQAAMELGATVCTPQRPLCSQCPVESLCRARQRVEQEQLLASGSLSGSPDVEECAPNTGQCHLCLPPSEPWDQTLGVVNFPRKASRKPPREESSATCVLEQPGALGAQILLVQRPNSGLLAGLWEFPSVTWEPSEQLQRKALLQELQRWAGPLPATHLRHLGEVVHTFSHIKLTYQVYGLALEGQTPVTTVPPGARWLTQEEFHTAAVSTAMKKVFRVYQGQQPGTCMGSKRSQVSSPCSRKKPRMGQQVLDNFFRSHISTDAHSLNSAAQ

Variants of: B1
Experiment: 8OG:A repair function score (normalized; synonymous = 0, nonsense = -1) (normalized log-likelihood score); higher = more repair activity (WT-like)
Conditions: with 8OG:A DNA repair reporter (GFP) in HEK-293 MUTYH KO cells
Procedure: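 Saturation mutagenesis (NNN codon scan) of the MUTYH cDNA (521-aa nuclear isoform NM_001048174.1 / NP_001041639), stably expressed under doxycycline induction in HEK-293 MUTYH knockout cells. Cells were co-transfected with an 8OG:A-bearing GFP repair reporter plus mCherry and sorted 72 h later into GFP+ and GFP− bins, three replicates per tile. The Rosace log2 enrichment (GFP+ vs GFP−) was converted per tile to a normalized function score with synonymous variants centered at 0 and nonsense variants (codons 1-471) at -1; low-abundance variants were removed.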

8OG:A repair function score of substitutions, site by site:
A135: M -0.467 | Y -0.211 | I -0.611 | H -0.353 | D -0.636 | Q -0.686 | V -0.0536 | G -0.074 | C -0.244 | R -0.0784 | T -0.165 | W -0.338 | S -0.0157 | F -0.316 | N -0.227 | P -0.477 | K -0.317 | E -0.996 | L -0.28
S138: T 0.0193 | M -0.0953 | I -0.286 | D -0.192 | N -0.128 | Y -0.0612 | W -0.724 | G 0.0657 | K -0.105 | R 0.0347 | P -0.0208 | Q -0.0419 | C -0.385 | A -0.0766 | L -0.279 | V -0.188 | F -0.378 | E -0.00767 | H 0.0365
K127: D -1.32 | F -0.207 | A -0.303 | M -0.286 | T -0.072 | Q -0.208 | G -0.408 | R 0.014 | L -0.0156 | W -0.529 | V -0.306 | P -0.884 | S -0.0418 | C 0.0938 | I -0.204 | N -0.0772 | Y -0.398 | E -0.0486 | H 0.135
A137: L -1.02 | D -0.219 | C -0.261 | P -0.869 | G -0.176 | I -0.286 | Y -0.928 | S -0.0075 | K -0.626 | M -0.417 | F -0.738 | N -0.267 | W -1.02 | E -0.16 | H -0.568 | Q -0.0812 | R -0.54 | T -0.295 | V -0.325
E141: Y -0.924 | D -0.251 | R -0.449 | G -0.256 | N 0.127 | H 0.19 | A -0.0585 | C -0.219 | K -0.0452 | I -0.599 | T -0.0124 | F -0.392 | P -0.499 | V -0.27 | M -0.111 | L -0.401 | S -0.0511 | W -0.348
E140: Q -0.159 | N -0.0981 | K -0.15 | L -0.0779 | R -0.124 | G -0.183 | V -0.181 | F -0.353 | S -0.0988 | D 0.0449 | A -0.0255 | C -0.0271 | H -0.253 | I -0.242 | M -0.00715 | Y -0.187 | P -0.438 | W -0.595 | T -0.149
Q126: L 0.0989 | P -0.376 | G -0.0912 | S 0.0362 | R 0.0261 | H -0.0777 | I -0.00505 | M 0.0168 | A 0.00568 | D 0.00176 | T 0.049 | E 0.0677 | F 0.0114 | C -0.239 | W -0.256 | N 0.0504 | V -0.0961 | Y -0.055 | K 0.0876
Q132: L -0.194 | P 0.0126 | D 0.0351 | E -0.0366 | Y -0.125 | V -0.0799 | T 0.0372 | M -0.0607 | K -0.364 | C -0.154 | F -0.327 | S -0.109 | G -0.076 | I -0.0124 | R 0.00437 | W -0.228 | H -0.0442 | N -0.0864 | A 0.059
S136: H -0.136 | M 0.116 | W -0.154 | P -0.137 | T 0.078 | C -0.0713 | R 0.0299 | F -0.278 | D 0.029 | I -0.0848 | N -0.0676 | E 0.0125 | L -0.0288 | A 0.0607 | G 0.03 | Q -0.0528 | Y 0.0366 | K 0.0771 | V 0.077
P129: Q -0.0447 | W -0.109 | L -0.577 | M -0.298 | G -0.263 | S -0.231 | T -0.491 | I -0.53 | H -0.193 | A -0.267 | R -0.477 | C -0.403 | K -0.414 | F -0.742 | D -0.0868 | V -0.608 | E -0.084 | N -0.266 | Y -0.513
L131: C -0.139 | Q -0.814 | W -1.21 | D -1.1 | A -0.104 | R -0.798 | V -0.0573 | E -0.608 | P -0.153 | T -0.0104 | N -0.249 | H -0.283 | M 0.0751 | K -0.394 | S -0.315 | I -0.158 | G -0.424 | F 0.00215 | Y -0.228
L139: R -0.0247 | A -0.241 | C -0.0786 | I 0.139 | P 0.0573 | K -0.511 | T 0.00391 | F -0.0535 | V 0.0777 | N 0.213 | E -0.17 | D -0.831 | S -0.0783 | W -0.0565 | Q -0.0666 | H 0.1 | Y -0.0177 | G -0.00666 | M -0.053
M125: V -0.308 | R -0.877 | L -0.161 | G -0.932 | I -0.0973 | Q -0.33 | Y -0.538 | T -0.339 | P -1.2 | K -0.523 | S -0.734 | H -0.401 | F -0.273 | W -0.408 | N -0.838
D133: F -0.0791 | K -0.175 | V -0.0608 | Y -0.727 | A -0.000201 | M 0.0651 | E -0.0313 | W -0.988 | C -0.201 | T -0.0145 | L -0.0567 | H -0.0208 | N 0.0132 | P -0.372 | Q -0.164 | I -0.308 | R -0.0865 | G 0.0336 | S 0.0612
L134: E -0.848 | K -0.914 | V 0.0486 | Q -1.24 | C -0.394 | D -1.82 | I -0.101 | Y -0.464 | S -0.514 | H -0.607 | M -0.216 | R -1.01 | A -0.0633 | P -1.26 | N -0.686 | F -0.116 | W -0.665 | G -0.824 | T -0.714
T130: K -0.0846 | A -0.214 | I -0.27 | E -0.171 | L -0.336 | R -0.049 | C -0.578 | M -0.278 | F -0.197 | V -0.178 | Y -0.392 | Q -0.123 | G -0.0108 | N -0.00511 | W -0.522 | H -0.115 | D 0.137 | P -0.9 | S 0.107
V142: S -0.632 | R -0.841 | K -0.84 | L -0.245 | Q -0.397 | E -0.728 | M -0.673 | F -0.926 | I -0.297 | G -0.5 | N -1.86 | H -0.882 | P -0.569 | A -0.377 | C -0.143 | D -1.15
W128: N -0.681 | M -0.374 | H -0.948 | I -0.397 | Y -0.0875 | R -0.696 | D -1.27 | V -0.224 | L -0.0988 | P -1.23 | K -0.455 | S -0.935 | T -0.721 | G -0.819 | A -0.875 | F -0.156 | Q -0.844 | E -0.929 | C -0.476
